Data: patent US8168160B2, “Anti-inflammatory fusion protein” (Eberhard-Karls-Universität Tübingen, priority 2006, dated 2012)

Legend:
[1] = system: atherosclerotic plaque tissue from the carotid of patients; assay: Specific Fc-ELISA on atherosclerotic plaques in vitro; assay type: binding; settings: disintegrated, surface-dried human carotid plaques (FIG. 5A)
Method: (§1) Atherosclerotic plaques from the carotid of patients, removed within the context of a surgery, were disintegrated, suspended, transferred to culture plates and surface-dried. Then a specific ELISA against the Fc portion of the CD68 or GPVI or pure Fc, respectively, was performed. In a parallel immunohistological analysis of human tissue from thrombus endarterectomy preparations of the Arteria carotis were performed.

[2] = system: atherosclerotic vessels of Apo E mice; assay: In vivo application of J124-labeled CD68-Fc, ex vivo autoradiography of vessels; settings: A. carotis; Apo E mice in relation to wild type (FIG. 6)
Method: Furthermore an in vivo application of J124-labeled CD68-Fc in atherosclerotic Apo E mice and in wild type mice was performed. J124-labeled CD68-Fc was administered into 24 weeks old atherosclerotic mice or in control wild type mice without any significant atherosclerosis. The organs were then removed and the A. carotis on both sides and the aortic arch were analyzed by autoradiography ex vivo.
A staining with oil-red and a corresponding autoradiography is shown in partial figure (B).

[3] = system: foam cell formation from CD34+ stem cells co-cultivated with thrombocytes; assay: Foam cell formation by co-cultivation of CD34+ stem cells with thrombocytes, counted by phase contrast microscopy; assay type: cell-based, human
Method: To isolate human thrombocytes venous blood was withdrawn from healthy test persons and collected into acidic citrate dextrose (ACD) buffer. After the centrifugation at 430 g for 20 minutes the platelet-rich plasma (PRP) was removed, added to Tyrodes HEPES buffer (2.5 mM HEPES, 150 mM NaCl, 1 mM […], 2.5 mM NaHCO3, 0.36 mM NaH2PO4, 5.5 mM glucose, 1 mg/ml BSA, pH 6.5) and centrifuged at 900 g for 10 minutes. After the removal of the supernatant the thrombocyte containing pellet was suspended in Tyrodes HEPES buffer (pH 7.4).
Human CD34^+ cells were isolated from human cord blood. This was obtained after the approval of the local ethics committee from healthy women immediately after the birth of a child. At least 95% of the isolated cells were positive for CD34^+ which was confirmed by means of flow cytometry analysis after each isolation. Human mononuclear cells were also obtained from cord blood by density gradient centrifugation on the Biocoll separation solution (BIOCROM Berlin, Germany) at 600 g for 15 minutes. CD34^+ cells were enriched by immunoaffinity selection (CD34 progenitor cell isolation kit; Milteenyi Biotec, Bergisch Gladbach, Germany) according to the manual of the producer. In the following the cells were incubated on 96 well plates which were covered with 0.2% gelatine. For the cultivation of the cells IMDM with glutamax, supplemented with 5% heat-inactivated fetal calf serum, […] penicillin-streptomycin, 1% MEM vitamins and 1% non-essential amino acids were used, all purchased from Gibco (Invitrogen, Karlsruhe, Germany). CD34^+ progenitor cells (50000 cells) were co-cultivated at 37° C. and 5% CO2 with thrombocytes (2×10^8-ml) in 96 well plates which were pre-covered with 0.2% gelatine. The formation of foam cells was counted in six windows by means of phase contrast microscopy.
Foam cells were produced by co-incubation of CD34^+ stem cells with thrombocytes for 10 days in vitro. […] In the following it was microscopically analyzed whether the foam cell formation was inhibited by the incubation with the CD68-Fc homodimers. […]

[4] = system: atherosclerotic plaque tissue; assay: Immunohistological analysis of thrombus endarterectomy preparations of the Arteria carotis; assay type: binding; settings: human thrombus endarterectomy preparations of Arteria carotis (FIG. 5B)
Method: as §1

MMP-9 = MMP-9 expression in the supernatant of foam cells; assay type: cell-based, human
Method: Moreover the method of ROS (“Reactive Oxygen Species”) measurement was used. Typically in the course of an inflammation process monocytes infiltrate the vascular wall, there differentiate into macrophages and produce cytokines, proteases such as the matrix metalloproteinase (MMP) and complement factors, but also free oxidized radicals, i.e. ROS. For the foam cells resulting from the co-incubation of CD34^+ stem cells with thrombocytes in vitro it was detected that they release ROS and also produce matrix metalloproteinase 9 (MMP-9).
The bands correspond to the expression level of MMP-9. In the corresponding lanes the following samples were loaded: 1. control CD34, 2. control CD34, 3. control protein 100 µg/ml, 4. control protein 400 μg/ml, 5. CD68-Fc homodimer 100 µg/ml, 6. CD68-Fc homodimer 200 µg/ml, 7. CD68-Fc homodimer 400 µg/ml, 8. Fluvastatin 1 μM.

[5] = increasing concentrations (summary statement)

B1: CD68-Fc homodimer: Fusion of extracellular domain of human CD68 with mutated human IgG1 Fc via three amino acid connecting element (SEQ ID No. 6), secreted as disulfide-linked homodimer (protein)
chain: NDCPHKKSATLLPSFTVTPTVTESTGTTSHRTTKSHKTTTHRTTTTGTTSHGPTTATHNPTTTSHGNVTVHPTSNSTATSQGPSTATHSPATTSHGNATVHPTSNSTATSPGFTSSAHPEPPPPSPSPSPTSKETIGDYTWTNGSQPCVHLQAQIQIRVMYTTQGGGEAWGISVLNPNKTKVQGSCEGAHPHLLLSFPYGHLSFGFMQDLQQKVVYLSYMAVEYNVSFPHAAQWTFSAQNASLRDLQAPLGQSFSCSNSSIILSPAVHLDLLSLRLQAAQLPHTGVFGQSFSCPSDRSGGRESKSCDKTHTCPPCPAPEAAAAPSVFLFPPKPKDTLMISRTPEVTCVVVDVSHEDPEVKFNWYVDGVEVHNAKTKPREEQYNSTYRVVSVLTVLHQDWLNGKEYKCKVSNKALPASIEKTISKAKGQPREPQVYTLPPSRDELTKNQVSLTCLVKGFYPSDIAVEWESNGQPENNYKTTPPVLDSDGSFFLYSKLTVDKSRWQQGNVFSCSVMHEALHNHYTQKSLSLSPGK
modifications: homodimer; Recombinant CD68-Fc fusion protein
- binding to atherosclerotic plaque tissue (Fc-ELISA) [1]: significant binding
- accumulation in vessels (autoradiography ex vivo) [2]: No significantly increased accumulation
- foam cell formation ([3]; co-incubation of CD34+ stem cells with thrombocytes for 10 days in vitro, microscopic analysis (FIG. 3B)): inhibited the formation of the foam cells
- foam cell formation, dependence on dosage ([3]; concentration of 400 μg/ml, pure Fc as control (FIG. 3C)): virtually completely inhibited
- formation of foam cells in co-cultivation assays in vitro [3, 5]: significant inhibition of the formation of foam cells
- binding to atherosclerotic plaque tissue (immunohistology) [4]: significant binding
- expression of MMP-9 in the supernatant of foam cells (MMP-9; 100, 200 and 400 μg/ml (lanes 5, 6, 7), in relation with control protein (FIG. 4)): clear inhibition of the formation of MMP-9
- secretion of MMP-9 by foam cells (MMP-9; [5]): can be inhibited
